Patent US20210139579A1

Molecular target: human ROR1 (hROR1) on the cell surface (human) (UniProt Q01973)
Assay: cell-based or functional assay

Sequence of human ROR1 (hROR1) on the cell surface (human) (Q01973 30-937): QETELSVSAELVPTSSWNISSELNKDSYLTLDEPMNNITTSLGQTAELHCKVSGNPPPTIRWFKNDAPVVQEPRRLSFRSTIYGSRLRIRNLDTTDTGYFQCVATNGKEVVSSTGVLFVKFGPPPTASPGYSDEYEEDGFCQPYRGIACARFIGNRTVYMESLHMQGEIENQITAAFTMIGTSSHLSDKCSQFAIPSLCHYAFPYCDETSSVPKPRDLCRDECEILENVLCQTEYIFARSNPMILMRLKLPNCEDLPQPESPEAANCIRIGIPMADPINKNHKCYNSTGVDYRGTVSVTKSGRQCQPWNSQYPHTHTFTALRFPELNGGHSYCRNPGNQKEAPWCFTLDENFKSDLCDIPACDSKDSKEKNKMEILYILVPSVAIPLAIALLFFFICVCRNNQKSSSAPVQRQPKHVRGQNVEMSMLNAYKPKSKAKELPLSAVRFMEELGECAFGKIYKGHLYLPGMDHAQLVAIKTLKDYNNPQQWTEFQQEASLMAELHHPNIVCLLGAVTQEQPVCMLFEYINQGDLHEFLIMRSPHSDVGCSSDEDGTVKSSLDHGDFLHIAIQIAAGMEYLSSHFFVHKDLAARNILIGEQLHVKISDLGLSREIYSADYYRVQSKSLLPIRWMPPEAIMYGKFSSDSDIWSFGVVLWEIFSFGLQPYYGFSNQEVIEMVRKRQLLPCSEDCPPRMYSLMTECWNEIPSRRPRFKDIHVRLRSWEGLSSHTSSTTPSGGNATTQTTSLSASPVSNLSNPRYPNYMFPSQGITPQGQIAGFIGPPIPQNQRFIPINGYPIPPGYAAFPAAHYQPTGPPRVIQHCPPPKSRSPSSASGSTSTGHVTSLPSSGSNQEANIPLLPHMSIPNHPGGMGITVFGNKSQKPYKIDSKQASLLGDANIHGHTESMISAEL

Question: Which results are given for 2A2-G5-PNU (antibody)?
Answer: IC50, in vitro cell killing of 697 cells: 0.125 µg/mL; IC50, in vitro cell killing of A549 cells: 76.8 µg/mL; IC50, in vitro cell killing of HS 578T cells: 1.78 µg/mL; IC50, in vitro cell killing of HT-29 cells: 19.8 µg/mL; IC50, in vitro cell killing of MDA-MB-468 cells: 0.727 µg/mL
